This passage reports Relative insulin receptor binding affinity (%) (% of the affinity of human insulin) results from patent US20110092419A1.

This experiment deals with purified recombinant human insulin receptor (either with or without exon 11) (human) (UniProt P06213). Kind of experiment: SPA competition with A14Tyr[125I]-human insulin on purified recombinant human insulin receptor.
On to “A8H, A14E, A22K, B25H, B29R, desB30 human insulin (from UniProt P01308 90-110; P01308 25-53) (ligand)”, for which the Relative insulin receptor binding affinity (%) (% of the affinity of human insulin) was found to be 67.1. Take “A8H, A14E, B10E, B25H, B26G, B27G,B28G, desB30 human insulin (from UniProt P01308 90-110; P01308 25-53) (ligand)”: the Relative insulin receptor binding affinity (%) (% of the affinity of human insulin) was 136.

Regarding “A8H, A14E, B16H, B25H, desB30 human insulin (from UniProt P01308 90-110; P01308 25-53) (ligand)”, the Relative insulin receptor binding affinity (%) (% of the affinity of human insulin) worked out at 24. Under “A8H, A14E, B22K, B25H, B29R, desB30 human insulin (from UniProt P01308 90-110; P01308 25-53) (ligand)” stands 81.1; under “A8H, A14H, B16H, B25H, desB30 human insulin (from UniProt P01308 90-110; P01308 25-53) (ligand)”, 27; under “A14E, A15E, B25H, desB30 human insulin (from UniProt P01308 90-110; P01308 25-53) (ligand)”, 23.

On to “A14E, A21G, B25H, desB30 human insulin (from UniProt P01308 90-110; P01308 25-53) (ligand)”, for which the Relative insulin receptor binding affinity (%) (% of the affinity of human insulin) worked out at 13.1.

Regarding “A14E, A22K, B16E, B25H, B29R, desB30 human insulin (from UniProt P01308 90-110; P01308 25-53) (ligand)”, the Relative insulin receptor binding affinity (%) (% of the affinity of human insulin) worked out at 0.9. On to “A14E, A22K, B16H, B25H, B29R, desB30 human insulin (from UniProt P01308 90-110; P01308 25-53) (ligand)”, for which the Relative insulin receptor binding affinity (%) (% of the affinity of human insulin) was found to be 7.61. With “A14E, A22K, B25H, B26G, B27G, B28G, B29R, desB30 human insulin (from UniProt P01308 90-110; P01308 25-53) (ligand)” the figure was 59.2. As for “A14E, A22K, B25H, B27E, B29R, desB30 human insulin (from UniProt P01308 90-110; P01308 25-53) (ligand)”, the Relative insulin receptor binding affinity (%) (% of the affinity of human insulin) worked out at 24.6. Take “A14E, B10E, B25H, B26G, B27G, B28G, desB30 human insulin (from UniProt P01308 90-110; P01308 25-53) (ligand)”: the Relative insulin receptor binding affinity (%) (% of the affinity of human insulin) stood at 144. With “A14E, B16E, B22K, B25H, B29R, desB30 human insulin (from UniProt P01308 90-110; P01308 25-53) (ligand)” the figure was 0.59; with “A14E, B16H, B22K, B25H, B29R, desB30 human insulin (from UniProt P01308 90-110; P01308 25-53) (ligand)”, 4.61; with “A14E, B16H, B25H, desB27, desB28, desB29, desB30 human insulin (from UniProt P01308 90-110; P01308 25-50) (ligand)”, 1.9.

“A14E, B22K, B25H, B26G, B27G, B28G, B29R, desB30 human insulin (from UniProt P01308 90-110; P01308 25-53) (ligand)”: the Relative insulin receptor binding affinity (%) (% of the affinity of human insulin) was found to be 60.7. Under “A14E, B25H, B26E, B27E, desB30 human insulin (from UniProt P01308 90-110; P01308 25-53) (ligand)” stands 16.5. Under “A14E, B25H, B26G, B27E, B28G, desB30 human insulin (from UniProt P01308 90-110; P01308 25-53) (ligand)” stands 22.7. Under “A14E, B25H, B26G, B27G, B28K, desB30 human insulin (from UniProt P01308 90-110; P01308 25-53) (ligand)” stands 69.5; under “A14E, B25H, B27G, B28G, desB30 human insulin (from UniProt P01308 90-110; P01308 25-53) (ligand)”, 16.5. On to “A14E, B25H, B28G, desB30 human insulin (from UniProt P01308 90-110; P01308 25-53) (ligand)”, for which the Relative insulin receptor binding affinity (%) (% of the affinity of human insulin) turned out to be 18.4. Under “A14E, B25H, B29R, desB30 human insulin (from UniProt P01308 90-110; P01308 25-53) (ligand)” stands 26.1. On to “A14E, B27K, desB28, desB29, desB30 human insulin (from UniProt P01308 90-110; P01308 25-51) (ligand)”, for which the Relative insulin receptor binding affinity (%) (% of the affinity of human insulin) amounted to 79.

As to “A14H, B16H, B25H, desB27, desB28, desB29, desB30 Human insulin (from UniProt P01308 90-110; P01308 25-50) (ligand)”, the Relative insulin receptor binding affinity (%) (% of the affinity of human insulin) amounted to 2. With “A14K, B25H, B29R human insulin (from UniProt P01308 90-110; P01308 25-54) (ligand)” the figure was 11. For “A14P, B25H, desB30 human insulin (from UniProt P01308 90-110; P01308 25-53) (ligand)”, the Relative insulin receptor binding affinity (%) (% of the affinity of human insulin) was determined as 14.
